Assay results published in the supplement of paper PMC10567573.

B1: TRIM55 (parent)
chain: YKSFSKEQQTMDNLEKQLICPICL

Variants of: B1
Test: protein stability index of a GFP-peptide fusion (GPS, HEK-293T) (PSI 1-6); higher = more stable
Settings: c terminus: a fixed tail appended
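Note: lentivirally expressed fusions sorted by FACS into six bins by GFP to DsRed ratio, PSI derived from sequencing read proportions per bin multiplied by bin number.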

Variant | protein stability index
YKSFSKEQQTMDNLEKQPICPICL | 2.87
YKSFSKEQQTMDNLEKQQICPICL | 2.08
YKSFSKEQQTMDNLEKQRICPICL | 3.17
YKSFSKEQQTMDNLEKQSICPICL | 2.49
YKSFSKEQQTMDNLEKQTICPICL | 2.54
YKSFSKEQQTMDNLEKQVICPICL | 3.42
YKSFSKEQQTMDNLEKQWICPICL | 1.95
YKSFSKEQQTMDNLEKQYICPICL | 2.18
YKSFSKEQQTMDNLEKQLACPICL | 1.99
YKSFSKEQQTMDNLEKQLDCPICL | 2.56
YKSFSKEQQTMDNLEKQLECPICL | 3.01
YKSFSKEQQTMDNLEKQLFCPICL | 2.09
YKSFSKEQQTMDNLEKQLGCPICL | 2.8
YKSFSKEQQTMDNLEKQLHCPICL | 2.25
YKSFSKEQQTMDNLEKQLKCPICL | 2.55
YKSFSKEQQTMDNLEKQLLCPICL | 1.96
YKSFSKEQQTMDNLEKQLMCPICL | 1.88
YKSFSKEQQTMDNLEKQLNCPICL | 2.71
YKSFSKEQQTMDNLEKQLPCPICL | 2.29
YKSFSKEQQTMDNLEKQLQCPICL | 2.81
YKSFSKEQQTMDNLEKQLRCPICL | 2.63
YKSFSKEQQTMDNLEKQLSCPICL | 2.37
YKSFSKEQQTMDNLEKQLTCPICL | 2.76
YKSFSKEQQTMDNLEKQLVCPICL | 2.06

Variant | protein stability index
YKSFSKEQQTMDNLEKQLWCPICL | 1.51
YKSFSKEQQTMDNLEKQLYCPICL | 2.02
YKSFSKEQQTMDNLEKQLIAPICL | 1.54
YKSFSKEQQTMDNLEKQLIDPICL | 2.51
YKSFSKEQQTMDNLEKQLIEPICL | 3.21
YKSFSKEQQTMDNLEKQLIFPICL | 2.22
YKSFSKEQQTMDNLEKQLIGPICL | 2.52
YKSFSKEQQTMDNLEKQLIHPICL | 2.27
YKSFSKEQQTMDNLEKQLIIPICL | 1.62
YKSFSKEQQTMDNLEKQLIKPICL | 1.88
YKSFSKEQQTMDNLEKQLILPICL | 2.29
YKSFSKEQQTMDNLEKQLIMPICL | 1.82
YKSFSKEQQTMDNLEKQLINPICL | 2.42
YKSFSKEQQTMDNLEKQLIPPICL | 2.86
YKSFSKEQQTMDNLEKQLIQPICL | 2.05
YKSFSKEQQTMDNLEKQLIRPICL | 2.11
YKSFSKEQQTMDNLEKQLISPICL | 2.4
YKSFSKEQQTMDNLEKQLITPICL | 2.44
YKSFSKEQQTMDNLEKQLIVPICL | 1.78
YKSFSKEQQTMDNLEKQLIWPICL | 1.85
YKSFSKEQQTMDNLEKQLIYPICL | 2.03
YKSFSKEQQTMDNLEKQLICAICL | 1.66
YKSFSKEQQTMDNLEKQLICDICL | 1.07
YKSFSKEQQTMDNLEKQLICFICL | 1.74

Variant | protein stability index
YKSFSKEQQTMDNLEKQLICGICL | 2.21
YKSFSKEQQTMDNLEKQLICKICL | 2.07
YKSFSKEQQTMDNLEKQLICLICL | 1.67
YKSFSKEQQTMDNLEKQLICNICL | 1.24
YKSFSKEQQTMDNLEKQLICQICL | 2.4
YKSFSKEQQTMDNLEKQLICRICL | 1.35
YKSFSKEQQTMDNLEKQLICSICL | 3.16
YKSFSKEQQTMDNLEKQLICTICL | 1.77
YKSFSKEQQTMDNLEKQLICVICL | 2.08
YKSFSKEQQTMDNLEKQLICWICL | 2.53
YKSFSKEQQTMDNLEKQLICYICL | 3.21
YKSFSKEQQTMDNLEKQLICPACL | 2.23
YKSFSKEQQTMDNLEKQLICPCCL | 2.66
YKSFSKEQQTMDNLEKQLICPDCL | 2.78
YKSFSKEQQTMDNLEKQLICPECL | 2.93
YKSFSKEQQTMDNLEKQLICPFCL | 2.21
YKSFSKEQQTMDNLEKQLICPGCL | 2.9
YKSFSKEQQTMDNLEKQLICPHCL | 2.15
YKSFSKEQQTMDNLEKQLICPKCL | 2.9
YKSFSKEQQTMDNLEKQLICPLCL | 2.18
YKSFSKEQQTMDNLEKQLICPMCL | 2.31
YKSFSKEQQTMDNLEKQLICPNCL | 3.48
YKSFSKEQQTMDNLEKQLICPPCL | 2.7
YKSFSKEQQTMDNLEKQLICPQCL | 2.03

Variant | protein stability index
YKSFSKEQQTMDNLEKQLICPRCL | 3.81
YKSFSKEQQTMDNLEKQLICPSCL | 2.75
YKSFSKEQQTMDNLEKQLICPTCL | 2.55
YKSFSKEQQTMDNLEKQLICPVCL | 1.96
YKSFSKEQQTMDNLEKQLICPYCL | 2.55
YKSFSKEQQTMDNLEKQLICPIAL | 2.29
YKSFSKEQQTMDNLEKQLICPIDL | 3.64
YKSFSKEQQTMDNLEKQLICPIEL | 2.85
YKSFSKEQQTMDNLEKQLICPIFL | 2.04
YKSFSKEQQTMDNLEKQLICPIGL | 2.67
YKSFSKEQQTMDNLEKQLICPIHL | 2.19
YKSFSKEQQTMDNLEKQLICPIIL | 1.93
YKSFSKEQQTMDNLEKQLICPIKL | 3.13
YKSFSKEQQTMDNLEKQLICPILL | 1.72
YKSFSKEQQTMDNLEKQLICPIML | 1.66
YKSFSKEQQTMDNLEKQLICPINL | 3.15
YKSFSKEQQTMDNLEKQLICPIPL | 1.86
YKSFSKEQQTMDNLEKQLICPIQL | 3.13
YKSFSKEQQTMDNLEKQLICPIRL | 2.37
YKSFSKEQQTMDNLEKQLICPISL | 2.6
YKSFSKEQQTMDNLEKQLICPITL | 2
YKSFSKEQQTMDNLEKQLICPIVL | 1.7
